Assay results: patent US20250092148A1 (Kyowa Kirin, published 2025)
Substitutions are numbered along the chain they refer to.

Assays:
[1] = molecular target: T1, human CD131 W163A (human, UniProt P32927 17-897); assay: flow cytometry, Fab on HEK-293T cells expressing the mutant; labels of this column stand one row too low, mutant assigned after shifting them up (text: W163 is an epitope residue)
T1 construct: whole, on cells
T1 sequence (looked up): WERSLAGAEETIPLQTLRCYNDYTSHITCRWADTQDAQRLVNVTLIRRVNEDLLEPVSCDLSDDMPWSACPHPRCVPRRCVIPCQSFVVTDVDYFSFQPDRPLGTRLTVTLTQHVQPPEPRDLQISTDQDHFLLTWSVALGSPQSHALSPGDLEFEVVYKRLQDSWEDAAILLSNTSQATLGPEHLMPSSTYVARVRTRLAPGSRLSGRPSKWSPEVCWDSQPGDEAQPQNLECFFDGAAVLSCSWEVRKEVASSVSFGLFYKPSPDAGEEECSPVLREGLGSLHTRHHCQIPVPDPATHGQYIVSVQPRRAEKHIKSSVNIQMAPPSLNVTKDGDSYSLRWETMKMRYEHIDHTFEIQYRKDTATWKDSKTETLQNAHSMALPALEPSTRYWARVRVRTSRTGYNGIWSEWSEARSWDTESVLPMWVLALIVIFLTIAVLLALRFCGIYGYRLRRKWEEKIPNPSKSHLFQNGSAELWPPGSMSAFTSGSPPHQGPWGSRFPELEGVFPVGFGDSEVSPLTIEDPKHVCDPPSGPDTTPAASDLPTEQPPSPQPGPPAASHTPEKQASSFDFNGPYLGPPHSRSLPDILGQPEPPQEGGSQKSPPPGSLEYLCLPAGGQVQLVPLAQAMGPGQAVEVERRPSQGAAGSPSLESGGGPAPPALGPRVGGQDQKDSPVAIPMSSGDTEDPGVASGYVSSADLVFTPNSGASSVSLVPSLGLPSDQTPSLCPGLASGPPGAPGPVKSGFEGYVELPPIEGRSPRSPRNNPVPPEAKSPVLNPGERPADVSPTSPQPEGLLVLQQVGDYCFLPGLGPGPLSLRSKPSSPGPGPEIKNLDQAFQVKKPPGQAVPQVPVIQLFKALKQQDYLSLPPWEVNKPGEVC

[2] = molecular target: T2, human CD131 P199A (human, UniProt P32927 17-897); assay: flow cytometry, Fab on HEK-293T cells expressing the mutant; labels of this column stand one row too low, mutant assigned after shifting them up
T2 construct: whole, on cells
T2 sequence (looked up): T1 sequence (looked up) with A147W, P183A

[3] = molecular target: T3, human CD131 H147A (human, UniProt P32927 17-897); assay: as above
T3 construct: whole, on cells
T3 sequence (looked up): T1 sequence (looked up) with H131A, A147W

Binding Reactivity (% WT) [1]: -9 % WT | Binding Reactivity (% WT) [2]: 96.8 % WT | Binding Reactivity (% WT) [3]: 110 % WT
B1: anti-CD131 antibody 131-B2, Fab (Fab, V domains shown)
VH: QVQLVQSGAEVKEPGASVKISCKASGYTFTNDYMHWVRQAPGQGLEWMGIINPTGGGTSYAQKFRGRVTMTRDTSTSTVYMELSSLRSEDTAVFYCARERYYGSGTYFNIGLWYFDLWGRGTLVTVSS
VL: not shown
notes: Fab made from the antibody by an enzyme treatment
